Assay: soluble on expression in E. coli; label from the status in PepcDB or PDB records

Sequence	soluble on expression in E. coli
VEAHPSLTLFSQLRIEHEDMAIAEDDWAWLRHKGHLRLGAALDETSPFNVRLDDENYEGITADVATLVGQLLGMRIKVVSFDTHADAVAALAAGKIDLLGSHYSSAGDSSLVLSQPYARDRLAVFKRMGEKRNSPEDLAGLSVAVAREHVGELRQRFPRARFVVFGSHDEAVAAVAFGHTDLYLDDVLSAYHRINRSYYGYVRFERFADARLEGGYGFLLRRGDTNLLRVVNSAIGAINQDRLESIARRWVGSGSLPTGQRIALTPQESRWIARHPVVRLVINDDLAPLAFFNSDETFSGIASDLLDMISRRTGLHFQVTPRSGGFPEQIGVLARKEADLAIMSRSSKREEMLRFTRSFLSTSYVLVTRADDKGRAEIPGSLDGKRIAIPAGHVGMQQVRERYPQASMVEVGVALDAMNLVYEGRADAAVVPLVTARYYIVRLFRERLAIADLVPIGAATAHFAVRRGDAELQSILDKALLSISPDDLSDIVNRW	not soluble
MAHHHHHHMQTHISRAVEEGRHTKEAAAYFESIMNDKPEFRLFMREAQRLIGDQDPRGLTRYQQTHYSEKLSRYMSGVASERLMRAHTEDENTRRHTHDGSPTGENYWFEAGQILASPTVPSFVKDEVLREMRGGRKEDSPAFEEPKAVAEMEADDEGFAEHLRRQRKRLLSPDDHLN	soluble
MIASKMPREVRLPSFQIEIIGAMSTYKIYCQSLLPLSHSALLIMVAPSFPLLNLPEKSLKEVFCNMSVVQQTCISMISEKTKNLVRKFHIFKQVQIWLDFSDSLRCYMSLKGISLSIWHTPMWH	not soluble
MDPNFHNTGPSGSAPRKPETWRSCKEANKVIEMFYSEGNFYHDIYMEELANLAETSHKNVRDTLSRLRKKDERAGKYVPPPPKQMYEFTSEQRGALDQAFLVTPQMDSDGARELSEITGLTVKQINNWFCNQRRKADGRSAEKDKKRRERIREDMKKNGLGRVGTFRSEAVELFEKEYETMLQLEAIGGGKVRIPYTELVEKTGMERKKIRDWFSKRKGRDKRFLENMENTREVSPQNTQQNIQDILIKIVTQKEESALQRHAPEMRDAGQRDGFCLFGFFLRD	not soluble
MSLELMEEVDRTVHHMQDEAANFPDPADRASQEEEFSLELRARDRERKLIKKIDETLQLIEDEEYGWCDSCGVEIGIRRLEEGHHHHHH	not soluble
KMPLTIYSADGEVIGMYGEQRREFTKIGDFPEVLRNAVIAAEDKRFYRHWGVDVWGVARAAVGNVVSGSVQSGASTITQQVAKNFYLSSEKTFTRKFNEVLLAYKIEQSLSKDKILELYFNQIYLGQRAYGFASAAQIYFNKNVRDLTLAEAAMLAGLPKAPSAY	not soluble
MSLRFTTISKAYDNVTTDDTQYRILIVEDDRSQALFAQSVLQGAGIHAQIEMSASEVLKVIEDYRPDLILMDLNMPELDGISLTTLIRQQPNQLLLPIVFLSGDTDPEKQFEVLDSGADDFLTKPIQPRHLIAAVSNRMHRLRQQQQNAQQADTQINIQKTSITELQTRIHIVEQLEVALSSGAQGALFFIEVSSALNLRTRYGYTAFERLMNQVEYHLAQEAHPYSLARISDHSFLLLAIDLAATEHQALATHLREHLATLPLPIQDDELVHLRSAIGYAPLNQGFKNADDAVECTESATLEARQNNEGIYAYVPLRTPENTGHLALLDGQLELAYQPIVEVAGSDTAQYQVLLRLRKADGNLLSAGLVIPAAEAAGRIMELDQQVIEQALDILKLHQDTNQQLRLFVSQSVRTLIHEGFSDWIIKNLRERNVNGTGLVIDLRLQDAVIHAIPLKQLCKELLKHNVKFCLSQFESNSEATVLFSELPLNFVRLSQHFGDAHNHPERQKELPLLIEQAHEHNLHVIGQCIEDAQAATFMWMNGVDLIQGNLFQNVSKDLNFNFHDMVLEGHHHHHH	soluble
MAHHHHHHMTSLQNLFVAKLPRNLTDADLHQIFVQYNPTSAKVMLDATTGKSKGFGFVLFASEDAGRTAYEKLNKTHVTLHGHNFNLCIFPSKHDGKVAMEESNALYVRNIPLKLSQAEVEQFLRGFGPLTYCAMREDNFGGSVWVVYAEFDSVESAKRALMSLHGNRTYFNTSVAILAKYADSEETKRERRRRREQQQAEQQHLDTVHNFGSPTTGLDSNKGFAVQSQNTPLPPPPPPPMRTSPGHSSTGSTLASSYSTSDMHKEGTGASLHPPTFASISHHFAPGRHGGGGPPPAMGQPAAPPASSMLASSTLQPTQPVSGQPQQSPTPNSGSFLNVIFNPTSANNFGNSFTHYSVLDQTPSRSSPGTPLNFSFGPEMENSGALANGLGTGSHAMLSASGHAPMTPVRRSSNLSTSGSYRHNPYAPVTPVSSTHNSTGPSTPLVSSIAYPTAPLAIMHFGASHHLQGSPVALHPLGPGIGVANNHFASRGNNAYLAAPASFNDLSH	not soluble
MGSDKIHHHHHHMAELSTRYNPAEIETKWYRYWEEKGYFTPKGVGEKFSIVIPPPNITGRIHMGHALNITLQDIVVRYKRMKGYDVLWVPGEDHAGIATQNAVEKFLLQTQGKTREEIGREKFLEITWEWANKYRREIREQIKALGASVDWTRERFTLDEGLSRAVRKVFVELYRKGLIYRGKYIVNWCPRCKTVLSDEEVEHKEHKSKLYYVKYPVKDSDEYIVVATTRPETMLGDTAVAVHPEDERYKNFVGKTLILPLVGREIPVVADKYVDPKFGTGAVKVTPAHDPNDYLIAQRHNLPMIEIFDDNARINENGGKYKGLDRYEAREKIVKDLEEQGFLVKIEDYTHSVGHCYRCDTVIEPKLSDQWFVSTKPLAKRAIEAVENGEIRFFPERWTKVYLNWMYEIRDWCISRQLWWGHRIPVWYCQDCGHLNVSEEDVEKCEKCGSTNLKQDEDVLDTWFSSALWPFSTLGWPEETEDLKRYYPTDLLVTGFDIIFFWVARMIMMGYEFMNDKPFSHVYIHQLVRDKYGRKMSKSLGNGIDPLEVIDEYGADPMRFTLAILAAQGRDIKLDPRYFDAYKKFANKIWNATRFVLMNLEDYKEVPLENLKTVDKWILTRLNKTVEEVTNALENYDFNIAARTIYNFFWDDFCDWYIEASKPRLKTEERNLVQTVLVKVLDASLRLLHPFMPFLTEELWQKLPVAGESITIAKWPEIERELIDETAEKEFTRLMNMVRGVRNVRAEMNLPQSQRVKVYIKGYEVTEEEELLLKTLGNIEEVSFVNEKPPKTATAYVEEEIEAYVDLGGLIDFEKEKERLKQIMEKIQKEIDRLEKKLANKDFVEKAPEEVVEETKEKLNTNRERLARLESILRDLE	not soluble
MERNKLARQIIDTCLEMTRLGLNQGTAGNVSVRYQDGMLITPTGIPYEKLTESHIVFIDGNGKHEEGKLPSSEWRFHMAAYQSRPDANAVVHNHAVHCTAVSILNRSIPAIHYMIAAAGGNSIPCAPYATFGTRELSEHVALALKNRKATLLQHHGLIACEVNLEKALWLAHEVEVLAQLYLTTLAITDPVPVLSDEEIAVVLEKFKTYGLAIEE	soluble
MSLKVTFEQLKAAFNRVLISRGVDSETADACAEMFARTTESGVYSHGVNRFPRFIQQLENGDIIPDAQPKRITSLGAIEQWDAQRSIGNLTAKKMMDRAIELAADHGIGLVALRNANHWMRGGSYGWQAAEKGYIGICWTNSIAVMPPWGAKECRIGTNPLIVAIPSTPITMVDMSMSMFSYGMLEVNRLAGRQLPVDGGFDDEGNLTKEPGVIEKNRRILPMGYWKGSGMSIVLDMIATLLSDGASVAEVTQDNSDEYGISQIFIAIEVDKLIDGPTRDAKLQRIMDYVTSAERADENQAIRLPGHEFTTLLAENRRNGITVDDSVWAKIQALEGHHHHHH	soluble
MSVKTWRKIAIDIIRDFDHNIMPLFGNPKASETISISPSGDETKVVDKVAENIIISKFKDLGVNVVSEEIGRIDQGSDYTVVVDPLDGSYNFINGIPFFAVSVAIFHEKDPIYAFIYEPIVERLYEGIPGKGSYLNGEKIKVRELAEKPSISFYTKGKGTKIIDKVKRTRTLGAIALELAYLARGALDAVVDIRNYLRPTDIAAGVVIAREAGAIVKDLDGKDVEITFSATEKVNIIAANNEELLETILRSIEK	soluble
MGHHHHHHSHMANVLCNRARLVSYLPGFCSLVKRVVNPKAFSTAGSSGSDESHVAAAPPDICSRTVWPDETMGPFGPQDQRFQLPGNIGFDCHLNGTASQKKSLVHKTLPDVLAEPLSSERHEFVMAQYVNEFQGNDAPVEQEINSAETYFESARVECAIQTCPELLRKDFESLFPEVANGKLMILTVTQKTKNDMTVWSEEVEIEREVLLEKFINGAKEICYALRAEGYWADFIDPSSGLAFFGPYTNNTLFETDERYRHLGFSVDDLGCCKVIRHSLWGTHVVVGSIFTNATPDSHIMKKLSGN	not soluble
MGSDKIHHHHHHMEEINKYIQNSSETGGEIYNLIEELFPICRSITGNGVRKTMDIIRKHIPLEIHEVKSGTKVFDWTVPKEWNIKDAYVRNSKGEKVIDFKENNLHVMSYSVPVHKTMTLDELKPYLHTIPGNKDRIPYLTSYYKENWGFSLTQNKFDELCDDDYEVVIDSSLEDGSLTYGEYYIRGELEEEILLTTYTCHPSMCNDNLSGVALITFIAKALSKLKTKYSYRFLFAPETIGSITWLSRNEDKLKNIKMGLVATCVGDAGIKNYKRTKFGDAEIDKIVEKVLMHCGSEYYVADFFPWGSDERQFSSPGINLSVGSLMRSCYGFDGYHTSADNLCYMNKDGLADSYKTYLEVIYTIENNRTYLNLNPKCEPQLGKRGIYRMIGGGSDYPFDEFAMFWVLNMSDGKNSLLDIAYKSGMEFRRIKYAADALYRVELLKLV	not soluble
MSATGPGIVVIDKPAGMTSHDVVGRCRRIFATRRVGHAGTLDPMATGVLVIGIERATKILGLLTAAPKSYAATIRLGQTTSTEDAEGQVLQSVPAKHLTIEAIDAAMERLRGEIRQVPSSVSAIKVGGRRAYRLARQGRSVQLEARPIRIDRFELLAARRRDQLIDIDVEIDCSSGTYIRALARDLGDALGVGGHVTALRRTRVGRFELDQARSLDDLAERPALSLSLDEACLLMFARRDLTAAEASAAANGRSLPAVGIDGVYAACDADGRVIALLRDEGSRTRSVAVLRPATMHPGGVPRGKLAAALEHHHHHH	soluble
MAHHHHHHMTEYALSLYVTLPSSFPKAAPRATMPYCCHNVPITPPNINPSEALAYQWSSTTSTLVEAVRNAFQNAADCWGPVEPPSMRSVTLQLSGETDRLLQDLVTNPNCLDAYCYQLPIVKLMREASRHTVSEIERVANENTTLRNEVETLEAQVKDLQRYLDEQVSQLQQLEQNRLLLSVGTPEALIKTLEDDVRRMSSDCMTLGRRALDAYKADKGGFQDLLKQYKAQSKATHMLDLKRLSYRAQCAAS	not soluble
MKIYSQGDQAIVVSIEKNVSQRLTEDLLSLRAYLIDKSYPFITEIVATESDLMICYDARDMIKHHHIQSPFLYMKALIDSIKLEIRHHRQQLQAKYIQKQQSVNIPVIYGGEFGPDLQHLLKHLKLKLEDFVKLHTQEKYFVSMMGYSPGFPYLTGMNKKLHVNHTSEKKKFIPCGSVIMEGKKCGIVTTDTYNDWLVIGYTPVQLFFPEQQNFTLLKLGDNVTFESKDINEIELGDYKTCQSLEHHHHHH	not soluble
MHHHHHHSSGVDLGTENLYFQSMAHNKIPPRWLNCPRRGQPVAGRFLPLKTMLGPRYDSQVAEENRFHPSMLSNYLKSLKVKMGLLVDLTNTSRFYDRNDIEKEGIKYIKLQCKGHGECPTTENTETFIRLCERFNERNPPELIGVHCTHGFNRTGFLICAFLVEKMDWSIEAAVATFAQARPPGIYKGDYLKELFRRYGDIEEAPPPPLLPDWCFEDDEDEDEDEDGKKESETGSSASFG	soluble
MSLIGETINKLKVIKESSKRDKSRCKMYECLCECGEVIIVRSSTLRQGKIKSCGCESNKIHSELMRERNTTHGLSSNPMYQRWLGMKQRCYDVNAINYKNYGGRGIEICEEWKNDFKKFYDYMGDPPNENYQIDRINNDGNYEPGNVKWSTRSENSTNIRKKEGHHHHHH	soluble
